In patent US7429564B2, “Oral insulin therapy” (Emisphere Technologies, Inc., priority 2002, dated 2008):

Legend:
Genotoxicity studies = conditions: four studies
Experimental: The present invention comprising compositions of insulin and the delivery agent 4-CNAB was evaluated for safety and toxicity in a nonclinical program that included pharmacological screening, pharmacokinetic profiling, and toxicity assessments in rats and monkeys.

[1] = Example 7: 4-CNAB plasma concentrations; type: in vivo, human; conditions: after start of meal intake; 200 or 400 mg 4-CNAB
Experimental: Blood samples for determination of 4-CNAB plasma concentrations (2 mL in sodium heparin tube) were drawn 10, 20, 30, 40, 60, 90, 120, 240 and 360 minutes after start of meal intake (9 samples per session). Blood samples for determination of insulin and C-peptide plasma concentrations (5 mL in sodium heparin tube) were drawn at −60 and −30 minutes, at time 0 (start of meal intake), and after 10, 20, 30, 40, 50, 60, 75, 90, 105, 120, 150, 180, 210, 240, 300, and 360 minutes (19 samples per session). Plasma concentrations of insulin were determined by a GLP-validated microparticle enzyme immunoassay (MEIA).

[2] = Example 5: safety and tolerability; conditions: 4-CNAB alone, oral 400-2000 mg
Source text: Safety assessments included physical examinations, medical history, vital signs, 12-lead electrocardiogram (ECG) monitoring, laboratory evaluations and checking for adverse events. Activity parameters included blood glucose, insulin, C-peptide, and 4-CNAB plasma concentration measurements.

blood glucose = test system: blood glucose; set-up: species or system Sprague-Dawley rats; conditions: rat, in vivo, 0.05 mg/kg
Experimental: An aqueous insulin stock solution was prepared (at pH 7.5) with a final insulin concentration of approximately 15 mg/mL. Delivery agents were dissolved in water with subsequent additions of sodium hydroxide or hydrochloric acid to both dissolve the delivery agent and to titrate the dosing solution to pH 7.5-8.5. The required amount of insulin was added to the delivery agent solution before dosing.
Insulin levels in the rats were assayed using the Insulin ELISA Test Kit [DSL, Webster, Tex. Cat. #DSL-10-1600]. The assay covered the range 3.125 to 250 mU/mL. Blood glucose levels in the rats were measured using a glucometer, One-Touch Basic Blood Glucose Monitoring System, manufactured by Lifescan Inc. (Milpitas, Calif.).
A total of 60 male Sprague-Dawley rats were fasted for 24 hours and then anesthetized with Thorazine (1.5 mg/kg, im) and Ketamine (44 mg/kg, im). They were then divided into the following 5 treatment groups: • 1. H2O (p.o. 1 mL/kg) • 2. Carrier (p.o., 1 mL/kg; 200 mg/kg) • 3. Insulin (p.o., 1 ml/kg; 0.5 mg/kg) • 4. Insulin and Carrier (p.o., 1 ml/kg; 0.5 mg/kg Insulin and 200 mg/kg 1182) • 5. Insulin (s.c., 0.05 mg/kg) • There were twelve animals per group, with three being sacrificed at 30, 60, 120 and 180 minutes. For serum insulin and blood glucose monitoring, 0.4 mL of blood was drawn from the tail artery. […]

[3] = Example 5: plasma insulin pharmacokinetics, healthy male volunteers; conditions: human, in vivo
Experimental: In Group 1, there were four escalating single doses of 4-CNAB (400, 800, 1400 and 2000 mg) and each subject received either all four of these escalating doses or three escalating single doses and one dose of placebo. […] In Group 3 there were three escalating oral doses of Insulin/4-CNAB (100 Units/300 mg, 100 Units/450 mg and 150 Units/100 mg) and one SC dose of 150 Units of insulin. Each subject received either all four of these treatments or three of these treatments and one placebo treatment. For all groups, there was a washout period of at least 72 hours between treatment periods.
For insulin/4-CNAB treatment Groups 2 and 3, subjects' blood samples (1 drop per sample) were drawn at 15 minutes before dosing, and at 5, 10, 15, 20, 25, 30, 35, 40, and 50 minutes and at 1, 1.25, 1.5, 1.75, 2, 2.5, 3, 4, 6, 8 and 12 hours post-dose (21 samples per treatment for Insulin/4-CNAB dosing groups) for plasma glucose, insulin and C-peptide measurements. For the 4-CNAB alone treatment Group 1, blood samples were collected before dosing (−15 minutes), and at 30 minutes and at 2 hr post-dose for blood glucose measurements. For the insulin alone control group (minimum 3 subjects), blood samples (3 mL in sodium heparin tube) were drawn at 15 minutes before dosing, and at 10, 20, 30, 40, 50 minutes and 1, 1.25, 2, 2.5, 3 and 6 hr post-dose (12 samples per treatment). The blood samples for glucose were assayed in real time using a Glucometer®. These measurements were used for detection of onset of hypoglycemia, so rescue action could be taken where necessary. Plasma glucose, insulin and C-peptide measurements were done according to standard procedures.
On the basis of plasma concentrations of 4-CNAB and insulin, PK analysis was performed using non-compartmental PK methods as implemented in WinNonlin™ Professional version 3.2. The profiles for insulin and C-peptide corrected insulin were evaluated up to 6 hours as food was given 6 hours following insulin treatment. The following parameters were derived for 4-CNAB: Cmax, tmax, AUC(0-t), AUC(0-inf), AUC% Extrap, Kel, t1/2, CL/F, Vd/F, MRT(0-t), MRT(0-inf) and Frel. The following parameters were derived for insulin and C-peptide corrected insulin: Cmax, tmax, AUC(0-2), AUC(0-6), AUC(0-t) and concentrations (C^b) and corresponding time (t^b) immediately prior to intervention for hypoglycemia.
The plasma concentration-time profiles for 4-CNAB were evaluated in those subjects who received 4-CNAB or Insulin/4-CNAB treatments. Insulin, C-peptide and glucose concentration-time profiles following administration of all treatments were evaluated for the 20 subjects in Groups 2 and 3. Pharmacokinetic (“PK”) parameters for 4-CNAB, insulin and C-peptide corrected insulin, and pharmacodynamic (“PD”) parameters for glucose concentration change from baseline, respectively were calculated for subjects whether they required hypoglycemic rescue or not. Concentrations from subjects who required food/drink due to hypoglycemia were excluded from descriptive statistics.

[4] = set-up: species or system rats; conditions: rat, in vivo, po
Experimental: Similarly, for a fixed oral dose of 4-CNAB, insulin absorption increases with increasing doses of insulin. Oral insulin absorption was evaluated in rats at varying doses of both insulin and 4-CNAB. […] The mean peak serum insulin levels were 31, 44, 85, and 132 μU/mL respectively. Insulin absorption was dose dependent and increased as the dose of insulin increased. […] The mean peak serum insulin levels were 9, 39, 103, and 157 μU/mL, respectively. Insulin absorption was dose dependent and increased as the dose of 4-CNAB increased.

With `O=C(O)CCCNC(=O)c1ccc(Cl)cc1O` [4-CNAB, 4-[(4-chloro, 2-hydroxybenzoyl)amino]butanoic acid] the Genotoxicity findings (Genotoxicity studies) was “no positive findings”, the “4-CNAB plasma concentration after 2 hours relative to level at 10 minutes” value [1] was “less than 10%” and the Tolerability [2] was “well tolerated”.

With “SC insulin: human regular insulin injected subcutaneously (Humulin R or equivalent; Calbiochem insulin in the rat studies)” the “Delay of tmax vs oral” value (blood glucose) was “about 15 minutes”, the Cmax ([3]; sc) was 0.375 nM and the “Insulin AUC(0-2)” value ([3]; sc) was 414.3 ± 181.5 pmol·h/L. The “Insulin AUC(0-6)” value ([3]; sc) was 1228.5 ± 378.1 pmol·h/L, the “Insulin C^b (immediately prior to recovery from hypoglycemia)” value ([3]; sc) was 168.3 ± 77.5 pmol/L and the “Insulin Cmax” value ([3]; sc) was 54.5 ± 25.6 uU/ml. The “Insulin t^b, median (range)” value ([3]; sc) was 1.00 (0.75-1.25) h, the Insulin tmax ([3]; sc) was 105 min and the “Insulin tmax, median (range)” value ([3]; sc) was 1.88 (1.58-4.00) h.

In the case of “oral insulin alone: recombinant human zinc insulin given orally without delivery agent”, the “Change in serum insulin levels” value [4] is reported as “did not result in any significant increases in serum insulin levels”, the Cmax ([3]; po) is reported as 0.0384 nM and the “Insulin AUC(0-2)” value ([3]; po) is reported as 51.8 ± 15.5 pmol·h/L. For the same molecule, the “Insulin tmax, median” value ([3]; po) was 25.8 min.
